Results on one substance are retold here after article PMC5430875.

For orientation: Kd means the free concentration of one partner at which half of the binding sites on the other are occupied at equilibrium, for simple one-to-one binding.

For the experiment, the target named is cynomolgus monkey FcRn (cynomolgus monkey) (UniProt Q8SPV9). In words: SPR; Biacore T200, pH 6.0; antibody and FcRn; who was immobilised is not told (details in Supplementary Information). A general note: Surface plasmon resonance follows binding to a sensor surface in real time, without labels.
Chain of UniProt Q8SPV9 (Q8SPV9 24-365): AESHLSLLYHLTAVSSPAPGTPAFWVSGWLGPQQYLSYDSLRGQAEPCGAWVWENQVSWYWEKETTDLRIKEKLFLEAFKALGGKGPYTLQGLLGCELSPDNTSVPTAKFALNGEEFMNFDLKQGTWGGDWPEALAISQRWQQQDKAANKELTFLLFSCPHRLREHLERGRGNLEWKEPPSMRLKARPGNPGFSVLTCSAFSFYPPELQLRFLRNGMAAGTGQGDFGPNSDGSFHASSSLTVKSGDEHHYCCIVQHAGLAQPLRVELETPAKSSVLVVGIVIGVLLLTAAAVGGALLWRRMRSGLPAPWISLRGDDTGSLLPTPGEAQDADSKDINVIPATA

Substance trastuzumab (antibody) gave a Kd of 1.98 µM.
